Measured values taken from article doi:10.1101/2020.02.01.930172 (bioRxiv, 2020).

Target: GST-SIRT6 K33R (human, UniProt Q8N6T7 1-355, K33R)
Test: pull-down

Sequence of GST-SIRT6 K33R (Q8N6T7 whole entry K33R): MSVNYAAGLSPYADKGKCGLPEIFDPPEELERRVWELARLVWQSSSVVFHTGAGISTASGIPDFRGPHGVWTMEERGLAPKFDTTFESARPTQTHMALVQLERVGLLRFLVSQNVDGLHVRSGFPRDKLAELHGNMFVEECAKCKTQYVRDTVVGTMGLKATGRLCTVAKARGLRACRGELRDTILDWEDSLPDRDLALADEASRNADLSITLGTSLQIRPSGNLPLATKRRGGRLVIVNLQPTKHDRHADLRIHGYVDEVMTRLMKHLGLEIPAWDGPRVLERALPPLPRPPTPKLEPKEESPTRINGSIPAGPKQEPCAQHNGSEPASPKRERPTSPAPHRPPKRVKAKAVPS

binding result: binds
Binder: GKKATQASQEY [biotin-labeled C-terminal γH2AX peptide]
